Results published in paper PMC10397247.
Read-outs that look alike come from different tables or passages of the source.

T1: 4H452-AA
T1 chain: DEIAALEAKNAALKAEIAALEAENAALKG

T2: 4H688-AA
T2 chain: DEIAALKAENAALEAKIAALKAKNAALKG

T3: 4H3381-AA
T3 chain: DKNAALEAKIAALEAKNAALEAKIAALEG

T4: 4H3073-AA
T4 chain: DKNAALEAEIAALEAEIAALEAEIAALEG

T5: 4H376-AA
T5 chain: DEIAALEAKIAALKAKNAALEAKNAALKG

T6: 4H3015-AA
T6 chain: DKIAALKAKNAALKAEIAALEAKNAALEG

T7: 4H3340-AA
T7 chain: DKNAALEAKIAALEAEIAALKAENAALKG

T8: 4H3493-AA
T8 chain: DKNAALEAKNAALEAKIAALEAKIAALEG

T9: 4H3001-AA
T9 chain: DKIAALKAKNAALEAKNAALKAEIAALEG

T10: 4H56-AA
T10 chain: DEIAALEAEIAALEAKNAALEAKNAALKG

T11: 4H_BCR
T11 chain: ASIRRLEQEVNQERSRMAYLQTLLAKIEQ

T12: 4H_APH
T12 chain: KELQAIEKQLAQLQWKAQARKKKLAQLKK

T13: 4H347-AA
T13 chain: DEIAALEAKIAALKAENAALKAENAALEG

T14: 4H963-AA
T14 chain: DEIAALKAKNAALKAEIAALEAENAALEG

T15: 4H406-AA
T15 chain: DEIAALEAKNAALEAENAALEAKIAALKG

T16: 4H3438-AA
T16 chain: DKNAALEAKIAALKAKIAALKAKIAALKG


Columns and labels:
Test in all cases: two-hybrid library CCmax;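 further: natural log of median RNA to DNA barcode read ratio; higher means stronger binding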
4H452-AA = target: T1, 4H452-AA; conditions: mean of both orientations
4H688-AA = target: T2, 4H688-AA
4H3381-AA = target: T3, 4H3381-AA; conditions: mean of both orientations
4H3073-AA = target: T4, 4H3073-AA; conditions: mean of both orientations
4H376-AA = target: T5, 4H376-AA; conditions: mean of both orientations
4H3015-AA = target: T6, 4H3015-AA; conditions: mean of both orientations
GCN2_T = target: GCN2_T
4H3340-AA = target: T7, 4H3340-AA
4H3493-AA = target: T8, 4H3493-AA; conditions: mean of both orientations
4H3001-AA = target: T9, 4H3001-AA
4H_GCN4 = conditions: mean of both orientations
Chain of 4H_GCN4 (chain, as listed by the source): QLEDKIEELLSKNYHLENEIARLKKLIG

4H56-AA = target: T10, 4H56-AA; conditions: mean of both orientations
4H_BCR = target: T11, 4H_BCR; conditions: mean of both orientations
4H_APH = target: T12, 4H_APH
4H347-AA = target: T13, 4H347-AA; conditions: mean of both orientations
4H963-AA = target: T14, 4H963-AA; conditions: mean of both orientations
4H406-AA = target: T15, 4H406-AA; conditions: mean of both orientations
4H3438-AA = target: T16, 4H3438-AA; conditions: mean of both orientations

| interaction score (4H452-AA) | interaction score (4H688-AA; mean of both orientations) | interaction score (4H3381-AA) | interaction score (4H3073-AA) | interaction score (4H376-AA) | interaction score (4H3015-AA) | interaction score (GCN2_T) | interaction score (4H3340-AA; mean of both orientations) | interaction score (4H3493-AA) | interaction score (4H3001-AA) | interaction score (4H_GCN4) | interaction score (4H56-AA) | interaction score (4H_BCR) | interaction score (4H_APH) | interaction score (4H347-AA) | interaction score (4H963-AA) | interaction score (4H406-AA) | interaction score (4H3438-AA) | interaction score (4H688-AA) | interaction score (4H3340-AA) | Binder |
| --- | --- | --- | --- | --- | --- | --- | --- | --- | --- | --- | --- | --- | --- | --- | --- | --- | --- | --- | --- | --- |
| -1.76 | -1.46 | -1.43 | -0.938 | -1.69 | -1.86 | -1.9 | -1.44 | -1.38 | -1.82 | -2.43 | -1.87 | -2.15 | -2 | -2.08 | -1.94 | 2.27 | -1.83 | – | – | DKIAALKAKNAALEAKNAALKAEIAALEG [4H3001-AA] |
| – | – | -1.57 | – | -1.48 | – | – | – | -1.48 | – | – | – | – | – | -0.858 | -2.28 | -1.43 | – | -1.69 | 1.7 | DKNAALEAKIAALEAEIAALKAENAALKG [4H3340-AA] |
